Experimental data reported in PMC11189522, “Exploring the sequence-function space of microbial fucosidases” (Communications Chemistry, 2024).

Columns and labels:
BaGH29^26A = biological target: T1, BaGH29^26A (Bifidobacterium asteroides, UniProt A0A0F4KU40); assay: X-ray crystallography; type: binding; conditions: co-crystallised with 5 mM 2'FL; active site
T1 construct: gene JF69_08700

[1] = system: C[C@@H]1O[C@@H](Oc2ccc([N+](=O)[O-])cc2Cl)[C@@H](O)[C@H](O)[C@@H]1O; assay: purified protein; conditions: pH 6.0; 37.0 °C
purified protein [2] = substrate: C[C@@H]1O[C@@H](Oc2ccc([N+](=O)[O-])cc2Cl)[C@@H](O)[C@H](O)[C@@H]1O; assay: purified protein; conditions: pH 6.0; 37.0 °C; remark: listed apart in the source
purified protein [3] = substrate: C[C@@H]1O[C@@H](Oc2ccc([N+](=O)[O-])cc2Cl)[C@@H](O)[C@H](O)[C@@H]1O; assay: purified protein; type: biochemical, Bifidobacterium asteroides; conditions: 50 mM citrate pH 6, 37 °C
purified protein [4] = substrate: C[C@@H]1O[C@@H](Oc2ccc([N+](=O)[O-])cc2Cl)[C@@H](O)[C@H](O)[C@@H]1O; assay: purified protein; type: biochemical, Niastella yeongjuensis; conditions: 50 mM citrate pH 6, 37 °C
purified protein [5] = substrate: C[C@@H]1O[C@@H](Oc2ccc([N+](=O)[O-])cc2Cl)[C@@H](O)[C@H](O)[C@@H]1O; assay: purified protein; type: biochemical, Streptococcus mitis; conditions: 50 mM citrate pH 6, 37 °C
purified protein [6] = substrate: C[C@@H]1O[C@@H](Oc2ccc([N+](=O)[O-])cc2Cl)[C@@H](O)[C@H](O)[C@@H]1O; assay: purified protein; type: biochemical, Porphyromonas gingivalis; conditions: 50 mM citrate pH 6, 37 °C
purified protein [7] = substrate: C[C@@H]1O[C@@H](Oc2ccc([N+](=O)[O-])cc2Cl)[C@@H](O)[C@H](O)[C@@H]1O; assay: purified protein; type: biochemical, Sphaerochaeta globosa; conditions: 50 mM citrate pH 6, 37 °C
purified protein [8] = substrate: C[C@@H]1O[C@@H](Oc2ccc([N+](=O)[O-])cc2Cl)[C@@H](O)[C@H](O)[C@@H]1O; assay: purified protein; type: biochemical, Tannerella forsythia; conditions: 50 mM citrate pH 6, 37 °C
purified protein [9] = substrate: C[C@@H]1O[C@@H](Oc2ccc([N+](=O)[O-])cc2Cl)[C@@H](O)[C@H](O)[C@@H]1O; assay: purified protein; type: biochemical, Sphingopyxis terrae; conditions: 50 mM citrate pH 6, 37 °C

## C[C@@H]1O[C@@H](O)[C@@H](O)[C@H](O)[C@@H]1O [Fuc]
BaGH29^26A
  X-ray crystallography: resulting in a complex with Fuc bound in the active site

## RsGH29^3A (Rhodopirellula sp. SWK7)
[1]
  Km: 668.00 ± 69.040 µM

## BsGH29^44B (Bacteroides sp. SM23_62)
[1]
  Km: 299.60 ± 25.340 µM

## FbGH29^26A (Firmicutes bacterium CAG:345)
[1]
  Km: 188.10 ± 32.870 µM

## LaGH29^3A (Lysobacter antibioticus)
[1]
  Km: 208.10 ± 33.240 µM

B1: RiGH29^2A (Roseburia intestinalis) (protein)
chain: MSEQQKEQQLLETVDRIIAEGPYQPAWSSLMQTKTPDWFKQKRFGIFIHWGVYSVPANSNEWYPRNMYIEGMPAYEHHIKTYGSQKDFGYKDFIPMFHAEKFDPAEWVRLFKEAGAGYVFPVAEHHDGFQMYKSELSHWNSAEMGPKRDVLGELKAEIEKQGLTFCTSSHRAEHWFFLGHGKEFDSDIKEPLQKGDLYWPSMPEPDAEDLYGEPYPTEEFLNDWLARTAEIILNYKPSLLYFDWWVQHQAFKPYLKKLAAFYYNCGVKWGKDVKICYKHDAMMFGSGIVEVERGGFAEAKPYDWQTDTAVARNSWCYTDTLDYKSSNEIICTLVDVVSKNGNLLLNIGPKADGTIPDGDRAILEDLAKWMKVNSEAVIGANVWRKSMEGPTAAAEGQFQDQKELKFTNKDYRFTINHGNIYAIALQCPKDGVFCIRSLADSSDQNVPEFHGIIESVDILGYDGRLQWSVDGEGLHVTAPGIDSEFPVVVRVRPE
Purified protein [2]
  Km: 302.30 ± 7.0500 µM

B2: BaGH29^26A (Bifidobacterium asteroides) (protein)
chain: MSDTVEWFKQAKYGMMIHWGLYSLLGGEYQGKSSSNYAEWVQSKLQIPNKEYERLTQAFNPIYFDADAIIDLAKRCGMQYLVVTTKHHDGFAMYRSLVDPYNVYDATPFHRDVIGELSLACRKAGLRFGLYYSQDLDWHEPDGGGYLSNDIETAGTTWDNSWDFTGEKNYDRAFKHKIMPQIEEIMSNYGEISVAWFDVPMTLSDEQSQTIYDTVKRLQPDCLINSRLGNGRYDYVSLGDNEIPEDSDASDKATSDGNVDYNSIEGFKPSKLGLYETAGTINDSWGFAYHDQNWKSPQTIHDYKAHLNKYGINYLLNVGLDGLGRVPMAAEQALLGARALEA
Purified protein [3]
  Km: 222.00 ± 20.100 µM
  kcat: 12.108 s⁻¹

B3: NyGH29^4A (Niastella yeongjuensis) (protein)
chain: QTYSPNWESLDARPAPQWFKDAKFGIFIHWGVYSVPAWAPVGKDYAVYSKYSEWYWNRLVTDSSKVGKAFRAYHNSTYGPNFKYQDFAPLFKAELFNPEQWADVFKNAGAQYVVLTSKHHDGFALWPSAEAWNWNAADVGPHKDLAGELTNAVKEKGLHMGFYYSLYEWFNPLYKSDIDKYVSEHMMPQLKDLVNRYKPDIIWPDGEWEHPSETWKSTQFLAWLYNESPVKNTVVVNDRWGKETRSKHGGYYTTEYDIVHNEDASKKQFEHPWEECRGIGGSFGYNRNETLGDYETSDAVIHMLIQKVARGGNLLLDIGPAADGTIPVIMQQRLADMGAWLKTNGEAIFGTTATKQPSINGAWFTQKNMDLYVILTAKMDKPLTFDLATAPGKATLLGVNKKVTVSYRSGKCTINPLELYPNLPAGGYAWVIKLEGAAGK
Purified protein [4]
  Km: 279.80 ± 10.820 µM
  kcat: 0.00383 s⁻¹

B4: SmGH29^1B (Streptococcus mitis B6) (protein)
chain: MVREIKPHGPLPSQAQLAYLEDELAAFIHFGPNTFYDQEWGTGQEDSERFNPTRLDAREWVRVLKEMGFKKLILVVKHHDGFVLYPTAYTDYSVKASPWRNGEGDLLLEVSQAATEFDMDMGVYLSPWDAHSPLYHVDQEADYNAYYLAQLKEILSNPAYGNGGKFAEVWMDGARGEGAQKVNYEFEKWFETIRDLQGDCLIFSTEGTSIRWIGNERGYAGDPLWQKVNPDKLGTEAALDYLQHGDSSGTIFSIGEADVSIRPGWFYHEEQDPKSLEELVEIYFHSVGRGTPLLLNIPPNQDGLFDEKDIKRLYEFATYRNELYKEDLALGAKVYGPALSADFACHHLTDGLESSSWASDADLPIQLELDLGFPKTFDVIELREDLKLGQRIAAFHVQVEVDGVWQEFGTGFTVGHKRLLRGPLVEAQKVRVMITESQDLPVLTKISLYKTPSLSQKEVVQGLAFAEKSLSVAKGETLHFRIERSESNTPLEAKISIQPGTGVHGIAYQDEIQVLQFQAGESKKDLCLPTLHFAADKTLDFYLNLTVDGQLVDQLQVQVS
Purified protein [5]
  Km: 289.50 ± 14.610 µM
  kcat: 0.865 s⁻¹

B5: PgGH29^1B (Porphyromonas gingivalis ATCC 33277) (protein)
chain: GQGQEVYYPGSVVFPADATLEQKVEMAAKVVPTLQQLAWQQMELTAFLHFGINTFTDSEWGDGKEDPALFNPVELDARQWVRILHEAGFRMVILTAKHHDGFCLWPTATTRHSVASSPWREGKGDVVKEVRAACEEYGMKFGIYLSPWDRNAECYGDSHRYNRFFVSQLTELLTHYGEVHEVWFDGANGEGPNGKRQEYDWETFYDTIRRLQPQAVMAIMGDDVRWVGNERGLGRTTEWSATVLTPGIYSRSKTERNRLGIRENSPDLGSREVLKEAGEIFWYPSEVDVSIRPGWFYHAAEDKKVKSLDKLVDIYFQSVGYNSVLLLNVPPDRRGLIHEADALRLKEWADYLGRAFAHDRVVDSARYAVVQEHAVEEYALESKTHINILMLQEDITKGQRTEAFTVEAWVDGAWQEIGRGTTIGYKRLLRIPAVETDRIRVRIEQCRLPVNLCRVAVYYAEPPEQVVADESWNDIPRADWKLLSDDPLTIDLGREVMLRAFTYAPYKAEAKPTTAVRYRLAVSEDGRQWREIPTMGEFANVINNPLPQTVDMNQIVRTRFIRLDATAASGDKAVITMQEIGVTVE
Purified protein [6]
  Km: 302.10 ± 9.6900 µM
  kcat: 1.8767 s⁻¹

B6: SgGH29^9A (Sphaerochaeta globosa str. Buddy) (protein)
chain: MKHEAVQQWLDLQFGLFIHFGLYSLPGGVWKGERITRGYSEQILSHGYLPQADYEALTEQFSLPEFNPKHIVTTAKQAGMRYLVITTKHHDGFCLFDTNTTDYKSTNAACKRDIVKDLSDECKKQGLAFGIYFSWIDWHFSEAAAISSHNSDPIPSSHQRLNIAQLTELLSNYGPMCELWMDMGAPTAEQSQEVYDLVQSLQPQCMVNGRIWNDKQDFLTMGDNQLPAVPLNCPWQTPASIYKETWGYRSWQVRGDRDEKIQELSDTARKVVQEGGNYLLNIGLMGTGAIQSFEQEVLEGIGTVLAKNPLKREQNKRILPKIVPGQLCAEPLVAYRYTGTEYYSYRPIPTTLCWALQLNEDTSICIGWESDQGLAREQKLCLEIAGKQYYSSLQKGRTSDTFITALKLKKGKHEICLHTIGDELKRPELVDTTLRLVLRKEGK
Purified protein [7]
  Km: 495.20 ± 171.80 µM
  kcat: 2.4117 s⁻¹

B7: TfFuc1^8A (Tannerella forsythia 92A2) (protein)
chain: PAQPGYTPSADNLKARETFQDDKFGIFIHWGIYSMLADGEWVMHNKNLNWEEYAKLASGFYPAKFNAAEWVAAIKASGAKYITITSRHHDGFSMYATQQSDYNIVDATPFKRDVIHELADECRKQGIRLHLYYSHLDWRRDDYYPLGRTGKGTGRTTQGKWEDYCAFMNNQLTELLTNYGLIGAIWFDGMWDKDIYPDGMTAKTWNLNEQYTLIHRLQPACLIGNNHHITPFAGEDIQIFERDLPGENKAGLSGQDISRLPLETCETMNGMWGYKITDQDYKSTKILIQYLVKAAGKNANLLMNVGPQPNGELPTVAVQRLREMGEWMKIYAPTIQGTRGGVVTPRDWGVTTQKGKTLYVHVLNLDDKALFLPYAGNKLKSAVEYQSRKSVRFIQDRDGILLKFTDKPHSPDYVLELTFANELPLN
Purified protein [8]
  Km: 153.70 ± 21.810 µM
  kcat: 8.9117 s⁻¹

B8: StGH29^nc (Sphingopyxis terrae subsp. ummariensis) (protein)
chain: AATVTGAGLGPQPRFPITGLPVLNPILRLYPEKSVFRSGDIRFGVGELEMMIPFLGTGEIVWSVNVSEAKRYRIALCYSTVNETQPVTISVNGQDVPFAAPRTKGYFIPHPEGPVDDPGDPDTDGFWRMREYYLFERKPVAGEVDLVRGVNVVKLKVTAPKGKEAFRLRSIELTPVDKVAEIEADLTRQRANRANTDWFANAGYGMWFHFLDLTTPRVGPRKSYEDAVNALDVPKLAKMVDDCGARYLIWTVNHGNPTCPAPIKAWERLHPGMTTKRDLIMELADELAKYNIELMLYQNCPGTGGLIQQHQRAIDTPTFSEVEYANQLIDVFNEFGARYGTKVKGWWLDSWFQTMESYPNLPNEAINRAIKSGNRNCMSSFNGWAFPNEVECQDYWCGEITDLPAKPFGARYLKDGPAAGLQAHSAIKLDAPWFHVTENMEMEPPLYSARELADYIAICQRDQAPVTLGVGIYQDGTIGPKSYAVLTELRGLIRKGKARR
Purified protein [9]
  Km: 290.60 ± 19.810 µM
  kcat: 0.00733 s⁻¹
